Results from patent US20090136977.

B1: ATase1 (acetyltransferase 1) with a myc tag at the C-terminus (protein)
chain: MAPYHIRKYQESDRKSVVGLLSRGMAEHAPATFRRLLKLPRTLILLLGGALALLLVSGSWILALVFSLSLLPALWFLAKKPWTRYVDIALRTDMSDITKSYLSECGSCFWVGESEEKVVGTVGALPVDDPTLREKRLQLFHLSVDNEHRGQGIAKALVRTVLQFARDQGYSEVVLDTSNIQLSAMGLYQSLGFKKTGQSFFHVWARLVDLHTVHFIYHLPSAQAGRL
B2: ATase2 (acetyltransferase 2) with a myc tag at the C-terminus (protein)
chain: MAPCHIRKYQESDRQWVVGLLSRGMAEHAPATFRQLLKLPRTLILLLGGPLALLLVSGSWLLALVFSISLFPALWFLAKKPWTEYVDMTLCTDMSDITKSYLSERGSCFWVAESEEKVVGMVGALPVDDPTLREKRLQLFHLFVDSEHRRQGIAKALVRTVLQFARDQGYSEVILDTGTIQLSAMALYQSMGFKKTGQSFFCVWARLVALHTVHFIYHLPSSKVGSL

Assays:
[1] = molecular target: BACE1Arg (Lys-to-Arg mutant form of BACE1), P56817
[2] = molecular target: affinity purified BACE1 (BACE1-myc, wild type), P56817
Sequence of affinity purified BACE1 (BACE1-myc, wild type), P56817 (P56817 22-501): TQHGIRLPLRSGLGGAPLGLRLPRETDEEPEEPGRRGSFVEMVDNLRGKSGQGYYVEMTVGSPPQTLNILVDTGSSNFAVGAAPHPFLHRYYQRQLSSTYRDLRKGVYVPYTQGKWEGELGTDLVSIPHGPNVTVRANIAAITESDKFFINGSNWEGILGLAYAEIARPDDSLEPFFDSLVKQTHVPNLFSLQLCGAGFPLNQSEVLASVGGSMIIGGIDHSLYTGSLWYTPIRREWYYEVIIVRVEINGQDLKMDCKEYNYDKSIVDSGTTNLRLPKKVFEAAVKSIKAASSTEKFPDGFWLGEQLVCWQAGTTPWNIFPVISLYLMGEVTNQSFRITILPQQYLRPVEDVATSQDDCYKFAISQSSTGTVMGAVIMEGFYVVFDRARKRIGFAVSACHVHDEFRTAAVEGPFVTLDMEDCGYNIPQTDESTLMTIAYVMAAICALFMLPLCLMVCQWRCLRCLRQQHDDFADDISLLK

Sequence of BACE1Arg (Lys-to-Arg mutant form of BACE1), P56817 (P56817 other isoform, or with tags, fused parts or gaps mutant): as the sequence (P56817 22-501) above, with K105R, K254R, K258R, K264R, K278R, K279R, K286R counted along it

Protein	in vitro acetylation of BACE1 with [3H]acetylCoA, scintillation counting [1]	acetylation of BACE1 with non-radiolabeled acetylCoA, Western blot with anti-acetylated lysine [2]	acetyltransferase activity of ERGIC fractions (acceptor: affinity purified BACE1) [2]	average cpm/assay ([3H]acetyl incorporated into BACE1) [2]	in vitro acetylation of BACE1 with [3H]acetylCoA, scintillation counting [2]
B1	purified ATase1 was able to acetylate BACE1WT but not BACE1Arg	clearly indicate that ATase1 can acetylate BACE1	ERGIC fractions from ATase1-expressing cells displayed increased (~2-fold) acetyltransferase activity	The average cpm/assay for ATase1 was 1737±486	purified ATase1 was able to acetylate BACE1WT but not BACE1Arg
B2	–	there was a marked increase in the acetylation of both the immature and partially-mature forms of BACE1	–	–	–
